Data on 6 molecules can be found in PMC3707680, “Structural and Pharmacological Characterization of Novel Potent and Selective Monoclonal Antibody Antagonists of Glucose-dependent Insulinotropic Polypeptide Receptor” (The Journal of Biological Chemistry, 2013).

One assay concerns the target GIP(1–42) peptide (UniProt P09681).
Assay [1] addresses T1, human GIP receptor on HEK293 cells (human) (UniProt P48546).
T1 sequence: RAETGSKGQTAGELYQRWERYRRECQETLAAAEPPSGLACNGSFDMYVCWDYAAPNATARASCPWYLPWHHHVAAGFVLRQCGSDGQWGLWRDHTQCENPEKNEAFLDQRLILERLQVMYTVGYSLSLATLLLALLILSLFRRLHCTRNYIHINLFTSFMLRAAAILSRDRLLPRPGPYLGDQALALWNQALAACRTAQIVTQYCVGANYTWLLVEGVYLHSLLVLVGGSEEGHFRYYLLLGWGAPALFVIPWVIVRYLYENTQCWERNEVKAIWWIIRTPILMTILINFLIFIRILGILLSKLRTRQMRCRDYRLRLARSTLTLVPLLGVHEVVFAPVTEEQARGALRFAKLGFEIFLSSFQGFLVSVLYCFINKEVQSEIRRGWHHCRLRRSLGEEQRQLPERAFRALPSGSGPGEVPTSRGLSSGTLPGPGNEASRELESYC

Assay [2] addresses T1, human GIP receptor on HEK293 cells (human). As to the kind of experiment: fluorescent microvolume assay technology (FMAT) on cells; receptor ligand competition with unlabelled peptides against AlexaFluor 647-labeled GIP on human GIPr-overexpressing cells; data not shown.
In the next assay the target is T2, biotinylated GIPr ECD (Homo sapiens, biotin (EZ-link Sulfo-NHS-LC-Biotin), positions not stated).
T2 construct: glucose-dependent insulinotropic polypeptide receptor, human, extracellular domain; same construct as m4, biotinylated; held on Super Streptavidin biosensors; also called soluble biotinylated GIPr ECD
T2 chain: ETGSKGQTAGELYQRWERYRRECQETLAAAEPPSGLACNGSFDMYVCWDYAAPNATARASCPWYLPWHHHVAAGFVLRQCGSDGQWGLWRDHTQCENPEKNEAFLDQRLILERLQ
As to the kind of experiment: BLI; Octet RED (reflectometric interference spectroscopy); biotinylated GIPr ECD at 1.2 μg/ml on Super Streptavidin biosensors; scFv at ~0.5 μM (12.5 μg/ml), single concentration; PBS with kinetics buffer; 1:1 Langmuir. The following applies: both partners purified. Background: In BLI a coated tip is dipped into the sample, and binding shifts an interference pattern.

Assay [3] concerns the target T3, human GIP receptor on HEK293 cells (human, UniProt P48546).
T3 construct: glucose-dependent insulinotropic polypeptide receptor, human, full-length receptor gene; also called HEK293 human GIPr; hGIPr; source: HEK293, stably transfected (pIRESneo3), on cells

Assay [4] deals with T4, GIPr ECD (extracellular domain of the human GIP receptor) (Homo sapiens).
T4 construct: glucose-dependent insulinotropic polypeptide receptor, human, extracellular domain; also called GIPr extracellular domain
T4 chain: T2 chain
Nature of the assay: SPR; BIAcore, Gipg013 Fab and GIPr ECD; who was immobilised is not told for the Fab. To be noted: both partners purified.

Assay [5] addresses T3, human GIP receptor on HEK293 cells. This is another data set of the same source.
The target of assay [6] is T4, GIPr ECD (extracellular domain of the …). As to the kind of experiment: SPR; Biacore 2000; Gipg013 IgG amine-coupled to a CM5 chip at low density (~139 resonance units), GIPr ECD in solution; 25 °C, 30 μl/min, HBS-N (10 mM HEPES, pH 7.4, 150 mM sodium chloride); 1:1 Langmuir model. To be noted: both partners purified. On the technique in general: SPR reads the build-up and loss of mass on a sensor chip optically.

Assay [7] concerns the target T3, human GIP receptor on HEK293 cells. As to the kind of experiment: fluorescent microvolume assay technology (FMAT) on cells; receptor ligand competition: dilution series of antibody against 0.5 nM AlexaFluor 647-labeled GIP on HEK293 human GIPr cells, Hanks' balanced salt solution with 0.1% BSA, room temperature, 1–2 h. To be noted: one partner purified.
In assay [8] the target is T5, mouse GIP receptor on HEK293 cells (Mus musculus, UniProt Q0P543).
T5 construct: glucose-dependent insulinotropic polypeptide receptor, mouse, full-length receptor gene; also called mGIPr; source: HEK293, stably transfected (pIRESneo3), on cells
Nature of the assay: fluorescent microvolume assay technology (FMAT) on cells; 0.25 μg/ml IgG with AlexaFluor 647-labeled goat anti-human IgG on stably transfected cells (5000 cells a well), Hanks' balanced salt solution with 0.1% BSA, room temperature, 3 h. The following applies: one partner purified.

The target of assay [9] is T6, rat glucagon receptor on overexpressing cells (Rattus norvegicus, UniProt P30082).
T6 construct: glucagon receptor, rat; also called GCGr; rGCGr; source: stably transfected cell line, on cells
The description is as above. To be noted: one partner purified.

Assay [10] concerns the target T7, dog GLP-1 receptor on overexpressing cells (Canis lupus familiaris, UniProt A0A8I3NUR9).
T7 construct: glucagon-like peptide 1 receptor, dog; also called dGLP-1r; source: stably transfected cell line, on cells
The description is as above. To be noted: one partner purified.

Assay [11] addresses T8, human glucagon receptor on overexpressing cells (Homo sapiens, UniProt P47871).
T8 construct: glucagon receptor, human; also called GCGr; hGCGr; source: stably transfected cell line, on cells
The assay is described as above. To be noted: one partner purified.

Assay [12] has as its target T9, mouse GLP-1 receptor on overexpressing cells (Mus musculus, UniProt O35659).
T9 construct: glucagon-like peptide 1 receptor, mouse; also called mGLP-1r; source: stably transfected cell line, on cells
The description is as above. The following applies: one partner purified.

Assay [13] concerns the target T10, rat GLP-1 receptor on overexpressing cells (Rattus norvegicus, UniProt P32301).
T10 construct: glucagon-like peptide 1 receptor, rat; also called rGLP-1r; source: stably transfected cell line, on cells
The assay is described as above. To be noted: one partner purified.

The target of assay [14] is T11, mouse glucagon receptor on overexpressing cells (Mus musculus, UniProt Q61606).
T11 construct: glucagon receptor, mouse; also called GCGr; mGCGr; source: stably transfected cell line, on cells
Described as above. The following applies: one partner purified.

The target in assay [15] is T12, human GLP-1 receptor on overexpressing cells (Homo sapiens, UniProt P43220).
T12 construct: glucagon-like peptide 1 receptor, human; also called hGLP-1r; source: stably transfected cell line, on cells
Described as above. To be noted: one partner purified.

Broadly, the IC50 is the concentration that gives 50% inhibition. For orientation: Kd means the equilibrium constant for the complex coming apart. A higher Kd goes with a looser complex. By koff is commonly meant the rate constant with which the complex falls apart. Low values mean slow dissociation, high ones fast dissociation. The kon is the rate constant with which the complex forms.

Like-named read-outs stand apart in the source and are kept apart here.

T11 sequence (Q61606 27-485): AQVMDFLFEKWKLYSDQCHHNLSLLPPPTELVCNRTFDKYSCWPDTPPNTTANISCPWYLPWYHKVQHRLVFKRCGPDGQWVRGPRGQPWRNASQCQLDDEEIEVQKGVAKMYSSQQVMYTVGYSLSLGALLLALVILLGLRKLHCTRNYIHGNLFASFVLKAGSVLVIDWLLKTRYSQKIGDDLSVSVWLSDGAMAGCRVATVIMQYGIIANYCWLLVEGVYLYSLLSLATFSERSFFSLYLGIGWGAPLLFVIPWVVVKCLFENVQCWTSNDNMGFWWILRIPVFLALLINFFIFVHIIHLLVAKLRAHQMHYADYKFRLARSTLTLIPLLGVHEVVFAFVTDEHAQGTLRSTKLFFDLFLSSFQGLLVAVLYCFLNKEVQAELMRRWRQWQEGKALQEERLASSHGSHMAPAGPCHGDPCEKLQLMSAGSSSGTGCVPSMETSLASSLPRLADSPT
T9 sequence (O35659 22-463): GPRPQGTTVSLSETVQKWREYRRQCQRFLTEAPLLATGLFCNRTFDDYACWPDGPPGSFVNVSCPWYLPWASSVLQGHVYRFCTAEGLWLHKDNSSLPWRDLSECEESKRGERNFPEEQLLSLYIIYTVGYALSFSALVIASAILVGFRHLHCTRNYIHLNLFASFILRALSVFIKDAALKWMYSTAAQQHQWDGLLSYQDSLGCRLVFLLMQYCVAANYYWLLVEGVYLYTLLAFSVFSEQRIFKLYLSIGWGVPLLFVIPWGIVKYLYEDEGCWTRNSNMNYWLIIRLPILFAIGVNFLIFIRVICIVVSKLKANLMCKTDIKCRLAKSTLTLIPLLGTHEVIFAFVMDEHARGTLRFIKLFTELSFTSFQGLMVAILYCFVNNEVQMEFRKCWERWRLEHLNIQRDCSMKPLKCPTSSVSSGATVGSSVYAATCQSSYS
T12 sequence (P43220 24-463): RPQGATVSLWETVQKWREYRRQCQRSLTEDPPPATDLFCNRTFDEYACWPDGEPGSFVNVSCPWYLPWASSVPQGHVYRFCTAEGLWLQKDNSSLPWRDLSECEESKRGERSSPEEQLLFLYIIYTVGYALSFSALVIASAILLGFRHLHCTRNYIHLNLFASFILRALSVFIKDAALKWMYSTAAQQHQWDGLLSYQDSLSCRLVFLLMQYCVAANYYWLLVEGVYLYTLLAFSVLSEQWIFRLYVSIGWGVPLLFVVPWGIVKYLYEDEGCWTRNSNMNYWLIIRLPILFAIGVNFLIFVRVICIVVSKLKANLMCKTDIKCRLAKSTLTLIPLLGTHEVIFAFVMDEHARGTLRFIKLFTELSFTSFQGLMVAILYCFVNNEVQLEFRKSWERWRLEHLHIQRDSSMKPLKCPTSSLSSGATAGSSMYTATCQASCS
T6 sequence (P30082 27-485): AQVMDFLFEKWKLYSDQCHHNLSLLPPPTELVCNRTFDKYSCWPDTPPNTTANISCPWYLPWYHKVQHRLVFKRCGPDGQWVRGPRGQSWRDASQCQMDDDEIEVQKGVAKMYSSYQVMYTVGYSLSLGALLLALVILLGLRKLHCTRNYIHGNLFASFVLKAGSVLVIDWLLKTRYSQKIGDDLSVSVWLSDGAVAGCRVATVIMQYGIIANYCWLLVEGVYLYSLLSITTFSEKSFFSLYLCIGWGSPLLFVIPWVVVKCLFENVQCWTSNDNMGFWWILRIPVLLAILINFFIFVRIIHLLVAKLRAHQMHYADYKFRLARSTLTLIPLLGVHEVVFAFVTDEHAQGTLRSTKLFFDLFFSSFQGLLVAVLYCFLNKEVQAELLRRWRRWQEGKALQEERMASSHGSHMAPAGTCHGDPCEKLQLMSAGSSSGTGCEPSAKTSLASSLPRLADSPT
T8 sequence (P47871 26-477): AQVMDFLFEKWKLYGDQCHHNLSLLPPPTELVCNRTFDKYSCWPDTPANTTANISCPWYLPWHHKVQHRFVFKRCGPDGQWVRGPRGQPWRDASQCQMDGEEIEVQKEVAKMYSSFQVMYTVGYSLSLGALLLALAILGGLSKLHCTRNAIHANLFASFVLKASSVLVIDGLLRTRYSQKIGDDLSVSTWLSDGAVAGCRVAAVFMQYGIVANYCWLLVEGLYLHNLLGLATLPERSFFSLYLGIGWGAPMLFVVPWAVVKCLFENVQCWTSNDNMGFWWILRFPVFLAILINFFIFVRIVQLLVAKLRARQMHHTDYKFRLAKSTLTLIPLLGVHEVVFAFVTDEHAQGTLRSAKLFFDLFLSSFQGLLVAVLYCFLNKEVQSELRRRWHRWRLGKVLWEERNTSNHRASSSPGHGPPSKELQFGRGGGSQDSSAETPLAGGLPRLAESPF
T5 sequence (Q0P543 19-460): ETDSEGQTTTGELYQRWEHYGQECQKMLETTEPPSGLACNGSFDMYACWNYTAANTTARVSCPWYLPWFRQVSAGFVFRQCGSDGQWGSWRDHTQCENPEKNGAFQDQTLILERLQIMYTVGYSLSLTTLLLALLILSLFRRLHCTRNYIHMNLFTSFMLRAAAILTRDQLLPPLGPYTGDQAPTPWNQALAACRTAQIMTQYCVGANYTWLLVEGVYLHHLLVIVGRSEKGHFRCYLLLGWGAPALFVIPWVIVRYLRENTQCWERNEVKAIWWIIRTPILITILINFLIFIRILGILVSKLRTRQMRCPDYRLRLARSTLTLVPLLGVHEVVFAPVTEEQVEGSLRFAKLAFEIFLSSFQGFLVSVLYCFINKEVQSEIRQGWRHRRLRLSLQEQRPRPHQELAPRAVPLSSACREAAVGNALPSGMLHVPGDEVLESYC
T10 sequence (P32301 22-463): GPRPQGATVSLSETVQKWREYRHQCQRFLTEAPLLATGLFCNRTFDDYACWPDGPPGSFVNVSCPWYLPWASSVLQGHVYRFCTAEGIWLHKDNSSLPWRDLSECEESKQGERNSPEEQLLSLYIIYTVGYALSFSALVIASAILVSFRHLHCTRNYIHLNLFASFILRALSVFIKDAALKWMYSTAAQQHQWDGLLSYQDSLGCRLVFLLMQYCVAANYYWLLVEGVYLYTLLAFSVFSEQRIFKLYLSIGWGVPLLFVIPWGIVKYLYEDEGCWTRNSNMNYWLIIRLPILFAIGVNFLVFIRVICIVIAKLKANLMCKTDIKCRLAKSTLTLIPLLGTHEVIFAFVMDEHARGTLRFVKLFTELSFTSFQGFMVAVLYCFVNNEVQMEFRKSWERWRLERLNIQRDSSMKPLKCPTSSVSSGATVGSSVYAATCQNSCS

For “biotinylated GIPr ECD (domain or fragment)”, in the assay with GIP(1–42) peptide, the cAMP assay on HEK293 GIPr cells: soluble GIPr ECD competes with the cell surface GIPr for GIP came to 7 µM.

Pro3GIP (peptide): the cAMP HTRF assay, agonism in HEK293 human GIPr cells (partial, to 83% of the response with GIP) in assay [1] was determined as 180 nM.

The molecule GIP(7–30) (peptide) came in with a cAMP HTRF assay, antagonism of GIP-induced cAMP production in HEK293 human GIPr cells in assay [1] of 230 nM. In assay [2], the IC50 was 83 nM.

B1: Gipg013 scFv (scFv, V domains shown)
VH: QVQLQQSGAEVKKPGSSVKVSCKASGGTFSSYAISWVRQAPGQGLEWMGGIIPTFGTANYAQKFQGRVTITADESTSTAYMELSSLRSEDTAVYYCAQGPIVGAPTDYWGKGTLVTVSS
VL: SYVLTQPPSASGTPGQRVAISCSGSNSNIGSNTVHWYQQLPGAAPKLLIYSNNQRPSGVPDRFSGSNSGTSASLAISRLQSEDEADYYCAAWDDSLNGVVFGGGTKVTVL
notes: VH as in the heavy chain of m1; VL as in the light chain of m1; phage vector pCantab6 is named for the libraries
In the assay with biotinylated GIPr ECD, B1 returned a Kd of 25 nM, a koff of 0.00188 s⁻¹ and a kon of 74500 M⁻¹ s⁻¹. In [3], this molecule displayed a cAMP HTRF assay, antagonism of GIP-induced cAMP production in HEK293 human GIPr cells (blocks GIP on GIPr) of 233 nM.

B2: Gipg013 Fab (Fab, V domains shown)
VH: B1 VH
VL: B1 VL
notes: heavy chain of the Fab, PDB 4HJ0 chains P and C (final model Gln3-Val217, 206 residues); as the heavy chain of m1 up to the papain cut; light chain of the Fab, PDB 4HJ0 chains Q and D (final model Ser1-Glu213, 211 residues); as the light chain of m1; also called Gip013 Fab; source: papain digestion of the antibody
The molecule B2 had a Kd in assay [4] of 40 nM. Besides, in assay [5], the cAMP HTRF assay, antagonism of GIP-induced cAMP production in HEK293 human GIPr cells (blocks GIP on GIPr) is 102 nM.

B3: Gipg013 IgG (antibody, V domains shown)
VH: B1 VH
VL: B1 VL
notes: VH of Gipg013; also in PDB 4HJ0 (heavy chain of the Fab, chains P and C); heavy chain constant region of human IgG1 (full-length antibody in the IgG1 format); the light chain is in PDB 4HJ0 (chains Q and D); IgG1; converted from the scFv clone; also called GIP013; Gipr013; source: mammalian cells (variable genes cloned into the pEU vectors), purified; copies: 2 + 2
In assay [6], B3 registered a Kd of 23 nM. Also, in assay [6], the koff is 0.00369 s⁻¹. Moreover, the kon in assay [6] was 159000 M⁻¹ s⁻¹. In addition, in assay [7], the IC50 amounted to 17.2 ± 6 nM. Besides, the binding result is “binds” in assay [8]; “no binding (tested: 0.25 μg/ml)” in assay [9]; “no binding (tested: 0.25 μg/ml)” in assay [10]; “no binding (tested: 0.25 μg/ml)” in assay [11]; “no binding (tested: 0.25 μg/ml)” in [12]; “no binding (tested: 0.25 μg/ml)” in [13]. The binding result in [14] and in assay [15] was “no binding (tested: 0.25 μg/ml)” throughout.
